The target of this test is Vicia altissima seed lectin (VICALTA) (Vicia altissima). Kind of test: native gel or EMSA; native PAGE on Mini-PROTEAN TGX 4%-20% precast gels (single band at 87 kDa), compared with SDS-PAGE (single band at 38 kDa); purified seed lectin. (In general: A gel shift assay detects complexes by their altered migration in electrophoresis.)

Our source for the stoichiometry N values is publication PMC11964946.

As to “Vicia altissima seed lectin (VICALTA) (natural protein)”, the stoichiometry N was found to be 2.

Broadly, the stoichiometry N is the number of molecules, sites or subunits per partner or assembly.
